For assay [1], the target named is His-LAMA4 as used in Example 6 (species not stated) (Homo sapiens (Human)) (UniProt Q16363). The assay can be described thus: ForteBio BLI, LAMA-His on anti-His sensor, antibody 16.7 nM.
The target is the same in assay [2]. Kind of assay: ForteBio BLI, LAMA-His on anti-His sensor, antibody 33.3 nM. For orientation: Biolayer interferometry detects binding as a change in optical thickness at a sensor tip.
Assay [3] shares this target. The assay can be described thus: ForteBio BLI, LAMA-His on anti-His sensor, antibody 8.33 nM.
The target is the same in assay [4]. The assay can be described thus: Biacore SPR, Fab, steady-state approximation. (Surface plasmon resonance follows binding to a sensor surface in real time, without labels.)
The target is the same in assay [5]. The assay can be described thus: Biacore SPR, Fab over His-laminin-α4 captured on anti-6xHis.
Assay [6] has the same target. Kind of assay: Biacore SPR, Fab over His-laminin-α4 captured on anti-6xHis; Fab, not IgG; kinetic fit.
Assay [7] shares this target. The assay can be described thus: Biacore, steady-state approximation; IgG loaded on anti-human Fc sensor, free laminin α4 as analyte; IgG on anti-human Fc sensor, free laminin α4 as analyte; steady state.
Assay [8] shares this target. The assay can be described thus: Biacore, steady-state approximation; IgG loaded on anti-human Fc sensor, free laminin α4 as analyte.

These results are taken from patent US20170158755A1.

B1: chimeric 19C12 antibody (antibody, V domains shown)
VH: QVQLQQSGAELVKPGASVKISCKASGYAFSTYWMNWVKQRPGEGLEWIGQIYPGDGDTNYNGKFKGKATLTADKSSSTAYMQLSSLTSEDSAVYFCARSDGYYDYWGQGTTLTVSS
VL: NIVLTQSPASLAVSLGQRATISCRASESVDSYGTSFMHWYQQKPGQPPKLLICLASSLESGVPARFSGSGSRTDFTLTIDPVEADDAATYYCQQNNEDPPTFGAGTKLELKR
Consider B1, for which, in assay [1], the Kd is 53.8 pM, the Response came out at 1.27, the off-rate (koff) is 0.000403 s⁻¹ and the on-rate (kon) turned out to be 7.49e+06 M⁻¹ s⁻¹. In addition, in assay [2], the Kd was found to be 111 pM, the Response is 1.38, the koff is 0.000487 s⁻¹ and the kon worked out at 4.37e+06 M⁻¹ s⁻¹. In assay [3], this molecule had a Kd of 12.6 pM, a Response of 1.15, an off-rate (koff) of 0.000251 s⁻¹ and an on-rate (kon) of 2e+07 M⁻¹ s⁻¹.

B2: Fab fragment of chimeric 19C12 (Fab, V domains shown)
VH: QVQLQQSGAELVKPGASVKISCKASGYAFSTYWMNWVKQRPGEGLEWIGQIYPGDGDTNYNGKFKGKATLTADKSSSTAYMQLSSLTSEDSAVYFCARSDGYYDYWGQGTTLTVSS
VL: NIVLTQSPASLAVSLGQRATISCRASESVDSYGTSFMHWYQQKPGQPPKLLICLASSLESGVPARFSGSGSRTDFTLTIDPVEADDAATYYCQQNNEDPPTFGAGTKLELKR
As for B2, in assay [4], the Kd is 980 pM. Besides, in assay [5], the Kd is 620 pM and the koff was 0.0059 s⁻¹. Moreover, the on-rate (kon) in assay [6] amounted to 9.5e+06 M⁻¹ s⁻¹.

B3: Fab fragment of humanized 19C12 H2L4 (Fab, V domains shown)
VH: QVQLQQSGAELVKPGASVKVSCKASGYAFSTYWMNWVRQAPGQGLEWIGQIYPGDGDTNYNGKFKGRVTITADKSTSTAYMELSSLRSEDTAVYFCARSDGYYDYWGQGTTVTVSS
VL: NIVLTQSPASLAVSLGERATISCRASESVDSYGTSFMHWYQQKPGQPPKLLISLASSLESGVPARFSGSGSGTDFTLTISPVEAEDAATYYCQQNNEDPPTFGAGTKLEIKR
B3: the equilibrium dissociation constant (Kd) in assay [4] was 7100 pM.

B4: humanized 19C12 antibody H2L3 (antibody, V domains shown)
VH: QVQLQQSGAELVKPGASVKVSCKASGYAFSTYWMNWVRQAPGQGLEWIGQIYPGDGDTNYNGKFKGRVTITADKSTSTAYMELSSLRSEDTAVYFCARSDGYYDYWGQGTTVTVSS
VL: NIVLTQSPASLAVSLGERATISCRASESVDSYGTSFMHWYQQKPGQPPKLLICLASSLESGVPARFSGSGSRTDFTLTIDPVEAEDAATYYCQQNNEDPPTFGAGTKLEIKR
In assay [1], B4 gave an equilibrium dissociation constant (Kd) of 50.7 pM, a Response of 1.34, an off-rate constant (koff) of 0.000363 s⁻¹ and a kon of 7.16e+06 M⁻¹ s⁻¹. In assay [2], this molecule came in with a Kd of 115 pM, a Response of 1.54, an off-rate (koff) of 0.000493 s⁻¹ and an on-rate (kon) of 4.29e+06 M⁻¹ s⁻¹. In assay [3], the Kd amounted to 12.4 pM, the Response worked out at 1.23, the off-rate constant (koff) is 0.000256 s⁻¹ and the kon came to 2.07e+07 M⁻¹ s⁻¹. This molecule came in with a Kd in assay [7] of 1860 pM.

B5: Fab fragment of humanized 19C12 H2L6 (Fab, V domains shown)
VH: QVQLQQSGAELVKPGASVKVSCKASGYAFSTYWMNWVRQAPGQGLEWIGQIYPGDGDTNYNGKFKGRVTITADKSTSTAYMELSSLRSEDTAVYFCARSDGYYDYWGQGTTVTVSS
VL: DIVLTQSPASLAVSLGERATISCRASESVDSYGTSFMHWYQQKPGQPPKLLISLASSLESGVPARFSGSGSGTDFTLTISPVEAEDAATYYCQQNNEDPPTFGAGTKLEIKR
In the case of B5, in assay [4], the Kd was 8400 pM.

B6: Fab fragment of humanized 19C12 H2L3 (Fab, V domains shown)
VH: QVQLQQSGAELVKPGASVKVSCKASGYAFSTYWMNWVRQAPGQGLEWIGQIYPGDGDTNYNGKFKGRVTITADKSTSTAYMELSSLRSEDTAVYFCARSDGYYDYWGQGTTVTVSS
VL: NIVLTQSPASLAVSLGERATISCRASESVDSYGTSFMHWYQQKPGQPPKLLICLASSLESGVPARFSGSGSRTDFTLTIDPVEAEDAATYYCQQNNEDPPTFGAGTKLEIKR
For the molecule B6, the Kd in assay [4] turned out to be 1900 pM. In assay [5], this molecule yielded a Kd of 780 pM, a koff of 0.0077 s⁻¹ and a kon of 9.8e+06 M⁻¹ s⁻¹.

B7: humanized 19C12 antibody H2L6 (antibody, V domains shown)
VH: QVQLQQSGAELVKPGASVKVSCKASGYAFSTYWMNWVRQAPGQGLEWIGQIYPGDGDTNYNGKFKGRVTITADKSTSTAYMELSSLRSEDTAVYFCARSDGYYDYWGQGTTVTVSS
VL: DIVLTQSPASLAVSLGERATISCRASESVDSYGTSFMHWYQQKPGQPPKLLISLASSLESGVPARFSGSGSGTDFTLTISPVEAEDAATYYCQQNNEDPPTFGAGTKLEIKR
In assay [2], B7 showed a dissociation constant (Kd) of 123 pM, a Response of 1.26, a koff of 0.000585 s⁻¹ and a kon of 4.75e+06 M⁻¹ s⁻¹. In assay [3], this molecule yielded a Kd of 15.4 pM, a Response of 1.13, an off-rate constant (koff) of 0.000308 s⁻¹ and a kon of 2e+07 M⁻¹ s⁻¹.

B8: humanized 19C12 antibody H3L6 (antibody, V domains shown)
VH: EVQLQQSGAELVKPGASVKVSCKASGYAFSTYWMNWVRQAPGQGLEWIGQIYPGDGDTNYNGKFKGRVTITADKSTSTAYMELSSLRSEDTAVYFCARSDGYYDYWGQGTTVTVSS
VL: DIVLTQSPASLAVSLGERATISCRASESVDSYGTSFMHWYQQKPGQPPKLLISLASSLESGVPARFSGSGSGTDFTLTISPVEAEDAATYYCQQNNEDPPTFGAGTKLEIKR
In assay [1], B8 had a Kd of 62.6 pM, a Response of 1.21, a dissociation rate constant (koff) of 0.000501 s⁻¹ and an on-rate constant (kon) of 8.01e+06 M⁻¹ s⁻¹. In assay [2], this molecule gave a Kd of 113 pM, a Response of 1.38, a dissociation rate constant (koff) of 0.000553 s⁻¹ and a kon of 4.89e+06 M⁻¹ s⁻¹. In assay [3], this molecule returned an equilibrium dissociation constant (Kd) of 13.5 pM, a Response of 1.2, a koff of 0.000286 s⁻¹ and an on-rate (kon) of 2.11e+07 M⁻¹ s⁻¹. This molecule also registered a dissociation constant Kd in assay [8] of 1360 pM.

B9: Fab fragment of humanized 19C12 H3L6 (Fab, V domains shown)
VH: EVQLQQSGAELVKPGASVKVSCKASGYAFSTYWMNWVRQAPGQGLEWIGQIYPGDGDTNYNGKFKGRVTITADKSTSTAYMELSSLRSEDTAVYFCARSDGYYDYWGQGTTVTVSS
VL: DIVLTQSPASLAVSLGERATISCRASESVDSYGTSFMHWYQQKPGQPPKLLISLASSLESGVPARFSGSGSGTDFTLTISPVEAEDAATYYCQQNNEDPPTFGAGTKLEIKR
In assay [4], B9 yielded a dissociation constant (Kd) of 7200 pM.

B10: humanized 19C12 antibody H2L4 (antibody, V domains shown)
VH: QVQLQQSGAELVKPGASVKVSCKASGYAFSTYWMNWVRQAPGQGLEWIGQIYPGDGDTNYNGKFKGRVTITADKSTSTAYMELSSLRSEDTAVYFCARSDGYYDYWGQGTTVTVSS
VL: NIVLTQSPASLAVSLGERATISCRASESVDSYGTSFMHWYQQKPGQPPKLLISLASSLESGVPARFSGSGSGTDFTLTISPVEAEDAATYYCQQNNEDPPTFGAGTKLEIKR
With B10, in assay [1], the dissociation constant (Kd) amounted to 22.7 pM, the Response was 1.26, the koff turned out to be 0.000227 s⁻¹ and the kon was 9.98e+06 M⁻¹ s⁻¹. In assay [2], this molecule registered a Kd of 127 pM, a Response of 1.25, a dissociation rate constant (koff) of 0.00062 s⁻¹ and a kon of 4.87e+06 M⁻¹ s⁻¹. In addition, in assay [3], the equilibrium dissociation constant (Kd) was 16.1 pM, the Response was 1.18, the koff came out at 0.000268 s⁻¹ and the kon is 1.67e+07 M⁻¹ s⁻¹.

Broadly, the Kd is the equilibrium constant for the complex coming apart. For orientation: koff means a measure of how fast the partners let go of each other. Read a low koff as slow dissociation. A word on the kon: it is the second-order rate constant of association. High values mean fast association, low ones slow association.
